In patent US20230257472A1 (JIANGSU HENGRUI MEDICINE, published 2023):
Numbering of substitutions follows the chain as printed.

T1: His-tagged CD70 protein extracellular domain (His-TNC-CD70) (human)
T1 construct: Expressed in 293 cells; also called human His-TNC-CD70 antigen; human CD70 antigen
T1 chain: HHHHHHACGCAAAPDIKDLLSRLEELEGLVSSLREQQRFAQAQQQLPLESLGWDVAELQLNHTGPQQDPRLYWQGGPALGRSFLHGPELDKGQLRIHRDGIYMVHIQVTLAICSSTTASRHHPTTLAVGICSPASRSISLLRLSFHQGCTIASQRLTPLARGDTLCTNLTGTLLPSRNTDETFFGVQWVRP

T2: human CD70 on cells (CD70-positive 786-O cells, Raji cells, CHO-S cells expressing human full-length CD70, … (human, UniProt P32970 1-193))
T2 construct: whole, on cells; Endogenous on 786-O, Raji and U266 cells; transfected full-length human CD70 on CHO-S cells; also called CD70-positive cells
T2 sequence (looked up): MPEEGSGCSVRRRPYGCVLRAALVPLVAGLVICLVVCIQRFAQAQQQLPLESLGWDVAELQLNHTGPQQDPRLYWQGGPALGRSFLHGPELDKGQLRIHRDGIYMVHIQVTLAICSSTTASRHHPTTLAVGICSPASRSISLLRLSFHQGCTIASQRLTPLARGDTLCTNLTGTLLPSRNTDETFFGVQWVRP

B1: huF4011 (antibody, human IgG1, kappa, V domains shown)
VH: EVQLVQSGAEVKKPGSSVKVSCKASGDTFPRYNMHWVRQAPGQGLEWMGAIFPGTGETSYNQNFKGRVTLTADKSTSTAYMELSSLRSEDTAVYYCARNSYYDYAWFTYWGQGTLVTVSS
VL: DIVMTQSPDSLAVSLGERATINCRASKSVSSSGYSFMHWYQQKPGQPPKLLISLADNLESGVPDRFSGSGSGTDFTLTISSLQAEDVAVYYCQHSREFPPTFGQGTKLEIKR
notes: Humanized IgG1
B2: huB1010 (antibody, human IgG1, kappa, V domains shown)
VH: EVQMVQSGAEVKKPGASVKVSCKASGYTFTTYNIHWVRQAPGQGLEWMGDIYPGTGDASYNQKFRDRVTMTRDTSTSTVYMELSSLRSEDTAVYYCATFSRFDGWFAYWGQGTLVTVSS
VL: B1 VL with K27R, S31T, F36Y, S53Y, F98L, P100Y, Q104G, L108V
notes: Humanized IgG1

Tests used:
[1] = target: T3, fusion protein of the monkey CD70 protein extracellular domain and Human-IgG1-Fc (monkey CD70-Fc) (monkey); assay: ELISA, plate coated with 1 µg/mL monkey CD70-Fc, HRP goat anti-human F(ab')2 detection
T3 construct: also called monkey CD70 antigen
T3 sequence (chain, as listed by the source limits assumed): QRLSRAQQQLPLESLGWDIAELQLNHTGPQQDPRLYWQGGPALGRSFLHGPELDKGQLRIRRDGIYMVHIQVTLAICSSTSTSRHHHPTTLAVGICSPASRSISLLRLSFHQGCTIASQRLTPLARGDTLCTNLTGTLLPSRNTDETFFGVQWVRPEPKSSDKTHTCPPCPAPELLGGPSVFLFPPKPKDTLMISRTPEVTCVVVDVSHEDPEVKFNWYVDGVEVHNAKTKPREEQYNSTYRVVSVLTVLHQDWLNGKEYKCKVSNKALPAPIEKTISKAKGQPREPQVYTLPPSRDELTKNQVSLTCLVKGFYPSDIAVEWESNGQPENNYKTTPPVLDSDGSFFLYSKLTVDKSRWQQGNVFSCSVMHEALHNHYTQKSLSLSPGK
Protocol: (§1) The binding ability of the anti-CD70 antibodies was determined by the amount of the antibodies bound to the CD70 antigen protein immobilized on the ELISA plate. 1 μg/mL human CD70-Fc (set forth in SEQ ID NO: 2), monkey CD70-Fc (set forth in SEQ ID NO: 82) and mouse CD70-Fc (set forth in SEQ ID NO: 83) were coated, incubated and blocked. […] OD450 values were measured on a microplate reader.

[2] = target: T1, His-tagged CD70 protein extracellular …; assay: SPR Biacore T200, antibody captured by anti-human Fc, His-TNC-CD70 in flow, 1:1 model
Protocol: The affinity of the chimeric and humanized antibodies of the present disclosure for the human CD70 antigen was tested using a Biacore instrument. The procedures are as follows:
The human Fc capture molecules were covalently coupled to a CM5 biosensor chip (CAT #BR-1005-30, GE) according to the method described in the instructions of the human Fc capture kit (CAT #BR-1008-39, GE) for affinity capture of the antibodies to be tested. Then, a human His-TNC-CD70 antigen (set forth in SEQ ID NO: 1) flowed through the surface of the chip, and the reaction signal was detected in real time using a Biacore T200 instrument to obtain association and dissociation curves. After the dissociation was completed for each cycle, the biochip was washed and regenerated with a regeneration solution configured in the human antibody capture kit (GE). Data were fitted using a 1:1 model.

[3] = target: T2, human CD70 on cells (CD70-positive …); assay: flow cytometry competition on CHO-S cells expressing human full-length CD70; blocked ligand: biotin-labeled CD27-Fc, Alexa Fluor 488 streptavidin detection
Protocol: The cell-blocking activity of the anti-CD70 antibodies was assayed by flow cytometry. CHO-S cells expressing human full-length CD70 (Invitrogen, R80007) at 1×10⁶ cells/mL were blocked with 1% BSA PBS buffer, followed by the addition with diluted anti-CD70 antibody samples at different concentrations and biotin-labeled CD27-Fc (set forth in SEQ ID NO: 84), and the mixture was incubated for 1 h. After the plate was washed twice, Alexa Fluor 488-streptavidin (Invitrogen, CAT #S11223) was added, and the mixture was incubated for 1 h. After the plate was washed twice, fluorescence signals were read using a flow cytometer.

[4] = target: T2, human CD70 on cells (CD70-positive …); assay: cell-based or functional assay
[5] = target: fusion protein of the CD70 protein extracellular domain and Human-IgG1-Fc (human CD70-Fc) (human); assay: ELISA, plate coated with 1 µg/mL human CD70-Fc, HRP goat anti-human F(ab')2 detection
Chain of fusion protein of the CD70 protein extracellular domain and Human-IgG1-Fc (human CD70-Fc) (human) (chain, as listed by the source limits assumed): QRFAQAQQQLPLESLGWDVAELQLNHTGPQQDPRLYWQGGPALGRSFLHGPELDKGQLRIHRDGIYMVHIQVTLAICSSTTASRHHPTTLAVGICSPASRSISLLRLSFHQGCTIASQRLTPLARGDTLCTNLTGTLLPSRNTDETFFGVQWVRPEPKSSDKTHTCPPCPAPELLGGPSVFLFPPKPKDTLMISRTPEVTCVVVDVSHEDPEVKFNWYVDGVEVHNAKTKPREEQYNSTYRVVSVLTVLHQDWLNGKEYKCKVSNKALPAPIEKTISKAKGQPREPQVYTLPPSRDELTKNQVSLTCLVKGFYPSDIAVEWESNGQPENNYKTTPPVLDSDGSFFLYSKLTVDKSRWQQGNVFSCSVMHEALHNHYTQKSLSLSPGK
Protocol: as §1

[6] = target: T4, fusion protein of the murine CD70 protein extracellular domain and Human-IgG1-Fc (mouse CD70-Fc) (mouse); assay: ELISA, plate coated with 1 µg/mL mouse CD70-Fc, HRP goat anti-human F(ab')2 detection
T4 construct: also called mouse CD70 antigen
T4 sequence (chain, as listed by the source limits assumed): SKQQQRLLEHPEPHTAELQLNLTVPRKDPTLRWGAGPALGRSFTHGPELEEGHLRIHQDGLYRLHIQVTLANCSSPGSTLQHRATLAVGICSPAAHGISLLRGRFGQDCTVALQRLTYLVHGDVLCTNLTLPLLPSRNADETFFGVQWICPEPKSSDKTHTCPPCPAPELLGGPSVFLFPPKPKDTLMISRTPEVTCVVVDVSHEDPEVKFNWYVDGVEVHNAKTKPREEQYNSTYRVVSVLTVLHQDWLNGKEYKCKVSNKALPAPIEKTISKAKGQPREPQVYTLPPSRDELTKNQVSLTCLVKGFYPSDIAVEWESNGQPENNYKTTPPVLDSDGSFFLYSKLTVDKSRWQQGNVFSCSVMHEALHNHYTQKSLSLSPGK
Protocol: as §1

[7] = target: T2, human CD70 on cells (CD70-positive …); assay: flow cytometry on CD70-positive 786-O cells, Alexa Fluor 488 goat anti-human (H+L) detection
Protocol: (§2) 786-O cells (ATCC, CRL-1932) or Raji cells (ATCC, CCL-86) at 1×10⁶ cells/mL were blocked with 1% BSA PBS buffer, followed by the addition of diluted anti-CD70 antibody samples at different concentrations were added, and the mixture was incubated for 1 h. After the plate was washed twice, Alexa Fluor 488-goat anti-human (H+L) antibody (Invitrogen, CAT #A 11013) was added, and the mixture was incubated for 1 h. After the plate was washed twice, fluorescence signals were read using a flow cytometer.

[8] = target: T2, human CD70 on cells (CD70-positive …); assay: flow cytometry on CD70-positive Raji cells, Alexa Fluor 488 goat anti-human (H+L) detection
Protocol: as §2

Row | Binder | EC50 (read off the curve) [1] [µg/mL] | Kd [2] [pM] | koff [2] [s⁻¹] | kon [2] [M⁻¹ s⁻¹] | IC50 (read off the curve) [3] [µg/mL] | IC50 (ng/mL), inhibition of IL-8 secretion mediated by CD70/CD27 binding (U266 cells + HT1080/CD27 cells) [4] [ng/mL] | Imax (%), maximum inhibition rate of IL-8 secretion from CD27 cells [4] [%] | EC50 (read off the curve) [5] [µg/mL] | binding result [6] | EC50 (read off the curve) [7] [µg/mL] | EC50 (read off the curve) [8] [µg/mL] | binding result [1]
1 | B1 | ~0.05 | 46.5 | 0.000145 | 3.12e+06 | ~0.4 | 14.2 | 93.8 | ~0.03 | no binding (tested: 10 µg/mL (log 1)) | ~0.03 | ~0.02 | 
2 | B2 |  | 35.5 | 0.00013 | 3.67e+06 | ~0.4 |  |  | ~0.04 | no binding (tested: 10 µg/mL (log 1)) | ~0.02 | ~0.02 | binds
